Source: patent publication US20130171130A1 (ZymoGenetics, published 2013)

Key:
[1] = biological target: T1, IL-20RA (expressed alone on BHK cells) (human, UniProt Q9UHF4 30-553); test: radiolabeled ligand binding on stably transfected BHK cells
T1 construct: BHK cells stably transfected with IL-20RA only; also called ZcytoR7; IL-20 receptor alpha chain
T1 sequence: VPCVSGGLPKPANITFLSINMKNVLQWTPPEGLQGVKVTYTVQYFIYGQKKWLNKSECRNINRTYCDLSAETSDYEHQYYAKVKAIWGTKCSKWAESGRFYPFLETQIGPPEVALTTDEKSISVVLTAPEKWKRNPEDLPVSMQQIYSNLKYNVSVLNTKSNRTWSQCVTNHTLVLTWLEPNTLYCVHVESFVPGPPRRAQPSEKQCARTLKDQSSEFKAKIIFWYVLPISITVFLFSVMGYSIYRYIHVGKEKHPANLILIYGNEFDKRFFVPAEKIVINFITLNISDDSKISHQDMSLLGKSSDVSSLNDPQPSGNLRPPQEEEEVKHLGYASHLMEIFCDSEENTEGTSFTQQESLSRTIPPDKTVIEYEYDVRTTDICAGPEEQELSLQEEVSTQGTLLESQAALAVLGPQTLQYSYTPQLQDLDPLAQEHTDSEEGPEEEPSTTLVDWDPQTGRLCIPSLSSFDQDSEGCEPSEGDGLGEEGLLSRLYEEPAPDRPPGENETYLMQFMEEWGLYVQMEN
Protocol: (§1) The specificity and affinity of IL-20 for its receptor was determined using BHK cells stably transfected with IL-20RA, IL-20RB or both receptor subunits. […] Binding of ¹²⁵I-labeled IL-20 was eliminated in the presence of 100-fold excess of unlabeled IL-20 but not with 100-fold excess of the unrelated cytokine, IL-21.

[2] = biological target: T2, IL-20RB (expressed alone on BHK cells) (human, UniProt Q6UXL0 30-311); test: as above
T2 construct: BHK cells stably transfected with IL-20RB only; also called DIRS1; IL-20 receptor beta chain
T2 sequence: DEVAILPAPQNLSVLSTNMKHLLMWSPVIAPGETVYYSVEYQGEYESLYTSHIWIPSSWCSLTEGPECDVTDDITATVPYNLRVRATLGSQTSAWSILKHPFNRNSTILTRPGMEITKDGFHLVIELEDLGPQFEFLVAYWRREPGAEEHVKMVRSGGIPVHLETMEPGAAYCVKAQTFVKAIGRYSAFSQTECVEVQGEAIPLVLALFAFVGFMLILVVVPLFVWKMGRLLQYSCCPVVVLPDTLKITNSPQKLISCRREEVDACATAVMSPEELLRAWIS
Protocol: as §1

[3] = biological target: T3, IL-20RA/IL-20RB heterodimeric receptor (human, UniProt Q9UHF4 30-553; Q6UXL0 30-311); test: 125I-labeled IL-20 binding on BHK cells expressing IL-20RA and IL-20RB
T3 construct: Both subunits co-expressed on transfected COS, BHK or BaF3 cells, or endogenous on HaCaT keratinocytes; also called IL-20RB/IL-20RA heterodimer; IL-20 receptor
T3 sequence 1: T1 sequence
T3 sequence 2: T2 sequence
Protocol: as §1

B1: IL-20 (Interleukin-20) (ligand, UniProt Q9NYY1 25-176, looked up)
chain: LKTLNLGSCVIATNLQEIRNGFSEIRGSVQAKDGNIDIRILRRTESLQDTKPANRCCLLRHLLRLYLDRVFKNYQTPDHYTLRKISSLANSFLTIKKDLRLCHAHMTCHCGEEAMKKYSQILSHFEKLEPQAAVVKALGELDILLQWMEETE
notes: also called Zcyto10; IL-20 protein
- binding result [1]: no binding
- binding result [2]: no binding
- Kd [3]: ~1.5 nM
